Here are results for 1 molecule from patent CN111138528A (INST MILITARY MEDICINE ACADEMY MILITARY SCIENCES PLA, dated 2020).

This assay has as its target GPdM (Ebola virus (EBOV), UniProt Q05320 33-632). Description: ELISA, truncated GP coated, 5A8 titrated (method of Example 2).

B1: 单克隆抗体5A8 (antibody, V domains shown)
VH: EVQLLESGGGLVKPGGSLRLSCAASGFTFSDYYMNWIRQAPGKGLEWVSYISSSGKTIYYADSVKGRFTISRDNAKKSLYLQMNSLRAEDTAVYYCARDREIVISTTILLGSDHYAMDVWGQGTTVTVSS
VL: DIQMTQSPFTLSASVGDRVTITCRASQSINSYLNWYQQKPGKAPKLLIYSASSLQSGVPSRFSGSGSGTDFTLTISSLQPEDFAIYYCQQTYRTPYTFGQGTKVEIKT
B1: the EC50 was found to be 8.2 ng/mL.
